These results are taken from article doi:10.1101/2025.02.04.635266.

The term koff denotes the first-order rate constant of dissociation. A lower koff goes with a long-lived complex.

The target in this assay is IgG1-DNP-E430G (human). The assay can be described thus: single molecule force spectroscopy.

As to “DNP-unspecific IgG1-E430G (tip-linked) (antibody)”, the koff was found to be 1.8 s⁻¹.
